Experimental data from patent US20230399361A1, “MACROCYCLIC PEPTIDES” (UNIVERSITY OF NOTRE DAME DU LAC, priority 2022, published 2023).
Blank lines part the entries; values can stand above or below the molecule they belong to. *1 amine or outer side, *2 acyl side, *3 side chain or, on linkers, in order; H or OH if unused. Where a SMILES comes first, the peptide text is derived from it. Primed or numbered codes have the meaning given here. [ ]: non-standard residue; d: D form. aTyr = Tyr with an NH2 on the backbone amide nitrogen (N-amino residue), NN([C@@H](Cc1ccc(O[*:3])cc1)C(=O)[*:2])[*:1]; aIle″ = Ile with an NH2 on the backbone amide nitrogen (N-amino residue), CC[C@H](C)[C@@H](C(=O)[*:2])N(N)[*:1]; aVal″ = Val with an NH2 on the backbone amide nitrogen (N-amino residue), CC(C)[C@@H](C(=O)[*:2])N(N)[*:1]; N(NH2)Lys = NCCCC[C@H](NN)C(=O)O

Assays:
[1] = biological target: T1, tauP301L (Homo sapiens, UniProt P10636, P618L); test: ThT fluorescence aggregation assay of recombinant tauP301L; assay type: biochemical; conditions: 20 μM NAP (2-fold molar excess), 10 μM tauP301L, heparin, 48 h
T1 construct: we expressed and purified full-length tau featuring a P301L mutation; His6 (N); made in house; host or cells: E. coli BL21 (DE3)
Excerpt: (§1) NAP Tau Mimics Inhibit Tau Fibrilization In Vitro. We chose thioflavin T (ThT), an amyloid specific fluorescent dye that binds to β-sheet assemblies, to first evaluate the effect of NAPs on recombinant tau aggregation. For these studies, we expressed and purified full-length tau featuring a P301L mutation frequently observed in patients with frontotemporal dementia and Parkinsonism linked to chromosome 17 (FTDP-17). This missense mutation leads to local structure destabilization around the amyloid-forming region resulting in faster aggregation. Recombinant tauP301L aggregated in the presence of equimolar heparin sulfate (t1/2=6.5±0.4 h) starting with a very short 0.5 h lag phase, followed by a 24 h exponential growth phase. […] Compounds 2 and 4 are mono- and diaminated hexapeptides derived from the R2 PHF6* aggregation-prone sequence, whereas compounds 5, 6, 12, and 13 are all derived from the R3 PHF6 sequence. Several other NAPs had no effect on endpoint ThT fluorescence or lacked consistent inhibition across repeated experiments. […] NaOAc buffer, as evidenced by intense ThT fluorescence after 48 h (FIG. 1B).
Inhibition of full-length tau aggregation by mxyl-NAPs in a ThT assay. […] TauP301L ([…]) aggregated upon incubation with heparin over the course of 2 days, leading to high ThT fluorescence. […] We also synthesized linear and scrambled controls corresponding to each of the NAP inhibitors.
ThT Fluorescence Aggregation Assay. Recombinant tauP301L (10 μM final concentration) and NAP inhibitors (20 μM final concentration) were mixed in an aggregation buffer (100 mM sodium acetate, 10 μM ThT, 10 μM heparin, 2 mM DTT, and 0.5% DMSO, pH: 7.4) in a 96-well clear bottom black plate with a final reaction volume of 200 μL. The plate was then sealed with a clear sealing film and allowed to incubate at 37° C. with continuous shaking in a Biotek Synergy H1 microplate reader. An automated method was used to carry out ThT fluorescence measurements at an excitation wavelength of 444 nm and an emission wavelength of 485 nm at an interval of every 5 min for 48 h. Experiments were carried out in technical replicates on at least 2 different days. Every experiment included control wells that lacked tauP301L, heparin, or NAPs. The average signal from control wells lacking tau was used to subtract the background fluorescence, and the average of the first and last 10 data points of tau+heparin (no inhibitor) wells, after blank subtraction, was used to normalize the data. All data plots were generated with SigmaPlot.

[2] = Self-aggregation of peptides alone by ThT fluorescence; assay type: physicochemical; conditions: incubated alone in aq. NaOAc buffer, 48 h
Excerpt: as §1
Design and synthesis of aggregation-resistant backbone-aminated derivatives of mxyl-AD. The data above support the hypothesis that mxyl-AD mimetic macrocycle can engage in native-like hydrophobic cross-b interactions as well as edge-to-edge H-bonds along the fibril axis. We next sought to employ mxyl-AD as a template for the design of tau seeding inhibitors that could potentially cap fibril growth and block propagation. This required us to incorporate a chemical modification onto mxyl-AD that would preclude its ability to self-assemble without disrupting its capacity to adopt the conformation required to bind tau. We therefore designed two backbone N-amino peptide (NAP) derivatives of our tau mimic, mxyl-NAP1 and mxyl-NAP2 (Scheme 1). Each of these analogues features a backbone amide substitution that precludes canonical b-sheet H-bonding along one edge of the macrocycle, while leaving the other edge intact to engage the tau protein. […] Both mxyl-NAP1 and mxyl-NAP2, which feature a single backbone N-amino group within the amyloidogenic PHF6 module, were prepared on solid support starting from Fmoc-protected N-amino dipeptides.

[3] = biological target: T1, tauP301L; test: Transmission electron microscopy of heparin-induced tauP301L fibrils; assay type: biochemical; conditions: 10 μM tauP301L + heparin, 20 μM NAP (2-fold molar excess), 96 h
Protocol: This is consistent with previous reports showing that the endpoint ThT fluorescence and fibrilization lag time for full-length tau are particularly resistant to perturbation by inhibitors. […] To confirm the effect of NAPs on the growth of mature tau fibrils, we used transmission electron microscopy (TEM) to visualize the morphology and maturity of fibrillar species. Heparin-induced tauP301L fibrils were allowed to grow over 96 h in the presence or absence of inhibitors. Untreated tauP301L afforded large, helical, and amyloid-like filamentous fibrils.
Inhibition of full-length tau fibrilization by mxyl-NAPs in TEM. To confirm the results from ThT assays, we used TEM to visualize tauP301L fibrils in the absence or presence of synthesized NAPs. As expected, heparin-induced tauP301L formed dense networks of mature fibrils (FIG. 8).
Transmission Electron Microscopy. For analyzing fibrils by TEM, aggregation was carried out under conditions similar to the assay performed above but with ThT excluded and a final reaction volume of 100 μL. Samples were incubated in a microcentrifuge tube for 4 days at 37° C. with a mixing speed of 100 rpm. A 10 μL aliquot of the sample was then applied to 400-meshed formvar-/carbon-coated copper grids and negative-stained with 2% uranyl acetate. Micrographs were obtained on a JEOL 2011 transmission electron microscope at 200 kV.

[4] = biological target: T2, AcPHF6 (Homo sapiens, UniProt P10636); conditions: Chem. Eur. J. 2017, 23, 9618; cited from earlier work
T2 construct: AcPHF6; Ac-Val-Gln-Ile-Val-Tyr-Lys-NH2; 790.4833

[5] = Human serum stability assay; conditions: after 24 h, 37° C., HPLC
Protocol: Human Serum Stability Assay. The stability of NAPs in 25% human serum (MilliporeSigma) was assessed by HPLC. The reaction was started by adding NAPs at a final concentration of 500 μM in pre-warmed serum. The mixture was incubated at 37° C. for 24 h. A 100 μL aliquot of the reaction mixture was taken out at 0, 1, 4, and 24 h and was mixed with an equal volume of 20% trichloroacetic acid and incubated at 4° C. for 15 min to precipitate serum proteins. After centrifugation at 12,000 rpm for 10 min, the supernatant was collected and mixed with an internal standard (1 mg/mL Cbz-Tyr-OH dissolved in MeCN) and stored at −20° C. Samples were then analyzed by LC-MS, and the percentage of peptide remaining was calculated by integrating peaks.

[6] = biological target: Human tauP301L (0N4R) with an N-terminal His6 tag (human), P10636; test: cell-based or functional assay
Chain of Human tauP301L (0N4R) with an N-terminal His6 tag (human), P10636 (P10636 other isoform, or with tags, fused parts or gaps): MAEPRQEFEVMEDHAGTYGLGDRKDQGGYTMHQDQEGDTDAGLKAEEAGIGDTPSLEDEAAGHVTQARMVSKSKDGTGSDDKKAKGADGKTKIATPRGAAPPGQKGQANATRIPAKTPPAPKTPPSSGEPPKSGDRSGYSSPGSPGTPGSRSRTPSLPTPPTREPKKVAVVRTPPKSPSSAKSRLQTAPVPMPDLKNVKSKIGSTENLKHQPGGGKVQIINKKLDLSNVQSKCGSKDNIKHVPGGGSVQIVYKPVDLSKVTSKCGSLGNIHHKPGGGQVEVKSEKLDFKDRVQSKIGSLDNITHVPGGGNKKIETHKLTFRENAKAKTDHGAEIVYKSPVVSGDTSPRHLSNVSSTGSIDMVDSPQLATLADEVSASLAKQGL

T1 sequence (P10636 1-383 isoform P10636-6 P243L): as the sequence (P10636 other isoform, or with tags, fused parts or gaps) above, with P243L counted along it

Molecule: Ac-VPIVYK-NH2 [proline-containing analogue of PHF6 from the literature (Segal and co-workers)]
aggregation of AcPHF6 in vitro [4]: inhibits the aggregation

Molecule: Ac-Val-Gln-aIle-Val-Tyr-Lys-NH2 (Ac-VQ[aIle″]VYK-NH2) [Compound 6]
endpoint ThT fluorescence of tauP301L [1]: significantly reduce | self-aggregation, ThT fluorescence of peptide alone [2]: no such fluorescence | tauP301L fibril morphology by TEM [3]: short, immature rod-like fibrils

Molecule: Ac-aVal-Gln-Ile-Val-Tyr-Lys-NH2 (Ac-[aVal″]QIVYK-NH2) [Compound 5]
endpoint ThT fluorescence of tauP301L [1]: significantly reduce | self-aggregation, ThT fluorescence of peptide alone [2]: no such fluorescence | tauP301L fibril morphology by TEM [3]: short, immature rod-like fibrils

Molecule: CC[C@H](C)[C@H](NC(=O)[C@@H](N)CC(C)C)C(=O)N[C@H](C(=O)N[C@@H](CCCNC(=N)N)C(=O)N[C@@H](CC(C)C)C(=O)N[C@@H](CCC(=O)O)C(=O)N[C@@H](CC(N)=O)C(=O)N[C@H](C(N)=O)[C@@H](C)O)[C@@H](C)O [H-LITRLENT-NH2] (H-LITRLENT-NH2)
intact peptide in 25% human serum [5]: rapidly degraded

Now from value to molecule, other results behind:

endpoint ThT fluorescence of tauP301L [1]: significantly reduce | tauP301L fibril morphology by TEM [3]: short, immature rod-like fibrils
Molecule: Ac-Val-Gln-aIle-Ile-Asn-Lys-NH2 (Ac-VQ[aIle″]INK-NH2) [Compound 2]
self-aggregation, ThT fluorescence of peptide alone [2]: no such fluorescence

fibril capping IC50 in cells (seeding of tau-RD(LM)-YFP in HEK293 biosensor cells by pre-formed tauP301L fibrils) [6]: 5 µM
B1: Ac-Val-Gln-aIle-Val-aTyr-Lys-NH2 (12) (peptide)
peptide: Ac-VQ[aIle″]V[aTyr]K-NH2

fibril capping IC50 in cells (seeding of tau-RD(LM)-YFP in HEK293 biosensor cells by pre-formed tauP301L fibrils) [6]: 5 µM
B2: Ac-Val-Gln-Ile-aVal-Tyr-aLys-NH2 (13) (peptide)
peptide: Ac-VQI[aVal″]Y[N(NH2)Lys]-NH2
